Experimental data taken from PMC9687583.

Molecular target: T1, Human C-C motif ligand 16 (CCL16) (human), O15467
T1 chain: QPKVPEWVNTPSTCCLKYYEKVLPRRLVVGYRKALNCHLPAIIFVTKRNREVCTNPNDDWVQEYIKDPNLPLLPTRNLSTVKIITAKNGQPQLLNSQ
Assay: SEC; HiLoad 26/60 Superdex 75 pg; 50 mM sodium dihydrogen phosphate, 500 mM sodium chloride, 10% (v/v) glycerol, pH 8.0; apparent mass after calibration with standard proteins in the same buffer
Conditions: remark: other sources report otherwise

stoichiometry N: 2
B1: Human C-C motif ligand 16 (CCL16), O15467 24-120 (natural protein)
chain: QPKVPEWVNTPSTCCLKYYEKVLPRRLVVGYRKALNCHLPAIIFVTKRNREVCTNPNDDWVQEYIKDPNLPLLPTRNLSTVKIITAKNGQPQLLNSQ
modifications: here or on the partner: two intramolecular disulphide bonds (confirmed by CE-MS and electron density); two intramolecular disulphide bonds (confirmed by CE-MS and electron density)
